Reference: US20120252698

System: T1, PhosFluor (the fluorescent protein having the amino acid sequence set forth in SEQ ID NO: 10)
T1 sequence: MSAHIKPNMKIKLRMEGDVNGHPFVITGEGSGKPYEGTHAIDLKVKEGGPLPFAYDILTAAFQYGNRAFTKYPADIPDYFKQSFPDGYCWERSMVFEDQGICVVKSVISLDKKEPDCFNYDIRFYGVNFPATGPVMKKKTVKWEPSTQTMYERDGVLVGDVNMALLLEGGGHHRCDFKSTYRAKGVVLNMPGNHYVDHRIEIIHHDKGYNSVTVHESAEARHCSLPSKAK

Akt1, sequence (P31749 whole entry): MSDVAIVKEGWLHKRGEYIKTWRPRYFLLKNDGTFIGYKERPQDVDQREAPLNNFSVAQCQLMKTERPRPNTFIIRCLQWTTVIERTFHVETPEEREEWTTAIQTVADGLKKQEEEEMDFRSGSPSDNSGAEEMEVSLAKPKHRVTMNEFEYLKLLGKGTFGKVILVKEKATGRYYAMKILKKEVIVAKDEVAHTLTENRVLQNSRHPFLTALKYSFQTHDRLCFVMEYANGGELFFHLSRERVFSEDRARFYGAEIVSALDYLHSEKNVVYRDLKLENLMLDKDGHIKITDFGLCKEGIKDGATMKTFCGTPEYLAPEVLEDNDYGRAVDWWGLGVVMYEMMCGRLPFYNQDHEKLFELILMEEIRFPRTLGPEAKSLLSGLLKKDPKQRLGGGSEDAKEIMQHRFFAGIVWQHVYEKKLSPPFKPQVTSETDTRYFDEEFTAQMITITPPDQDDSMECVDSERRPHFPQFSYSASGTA

Row | Substance | Western blot analyses of phosphorylation | emission spectrum of PhosFluor | also measured
1 | Akt1 | serine and threonine sites on PhosFluor are phosphorylated by PKA, PKC, mitogen-activated protein kinase (MAPK), cell division control protein 2 (cdc2), and Akt1 | A marked shift in the emission spectrum of PhosFluor was observed when this molecule was incubated with PKA, PKC or Akt1 | excitation spectrum of PhosFluor: the excitation spectrum of PhosFluor was dramatically altered upon phosphorylation by different protein kinases, including Akt1
2 | Src | – | – | SDS-PAGE and immunoblot of PhosFluor incubated with kinase (total protein, phospho-tyrosine, mobility shift): PhosFluor is an avid substrate for PKC and Src
3 | mitogen-activated protein kinase (MAPK) | serine and threonine sites on PhosFluor are phosphorylated by PKA, PKC, mitogen-activated protein kinase (MAPK), cell division control protein 2 (cdc2), and Akt1 | – | fluorescence intensity of PhosFluor incubated with kinase: The fluorescence intensity of PhosFluor also increased above background levels when the protein was incubated with cdc2 and MAPK (data not shown)
4 | PKA | serine and threonine sites on PhosFluor are phosphorylated by PKA, PKC, mitogen-activated protein kinase (MAPK), cell division control protein 2 (cdc2), and Akt1 | A marked shift in the emission spectrum of PhosFluor was observed when this molecule was incubated with PKA, PKC or Akt1 | upward shift of apparent molecular weight on SDS-PAGE: To a lesser extent, higher molecular weight species were also observed upon phosphorylation by PKA
5 | cell division control protein 2 (cdc2) | serine and threonine sites on PhosFluor are phosphorylated by PKA, PKC, mitogen-activated protein kinase (MAPK), cell division control protein 2 (cdc2), and Akt1 | – | fluorescence intensity of PhosFluor incubated with kinase: The fluorescence intensity of PhosFluor also increased above background levels when the protein was incubated with cdc2 and MAPK (data not shown)
6 | protein kinase C (PKC) | serine and threonine sites on PhosFluor are phosphorylated by PKA, PKC, mitogen-activated protein kinase (MAPK), cell division control protein 2 (cdc2), and Akt1 | A marked shift in the emission spectrum of PhosFluor was observed when this molecule was incubated with PKA, PKC or Akt1 | SDS-PAGE and immunoblot of PhosFluor incubated with kinase (total protein, phospho-tyrosine, mobility shift): PhosFluor is an avid substrate for PKC and Src; upward shift of apparent molecular weight on SDS-PAGE: when phosphorylated by PKC, multiple higher molecular weight species of PhosFluor were resolved by SDS-PAGE
7 | alkaline phosphatase | – | – | fluorescence intensity of PhosFluor over time: This treatment virtually abolished the increase in fluorescence intensity of PhosFluor over time
